± gives the standard deviation.
Assay: protein stability index of a GFP-peptide fusion (GPS, HEK-293T) (PSI 1-6); higher = more stable
[1] = treatment: DMSO, c terminus: a fixed tail appended
[2] = treatment: MLN4924 1 uM, 8 h, c terminus: a fixed tail appended
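Note: 24-mer peptide tiles fused after GFP, lentivirally expressed, FACS-sorted into six equal bins by GFP/DsRed ratio, decoded by Illumina sequencing, PSI is the read-weighted mean bin number.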

| Sequence | protein stability index [1] | protein stability index [2] | protein stability index (treatment: DMSO, c terminus: native) | protein stability index (treatment: MLN4924 1 uM, 8 h, c terminus: native) |
| --- | --- | --- | --- | --- |
| QFPYVEFTGRDSITCLTCQGTGYI [TMEM106C] | 2.93 ± 0.47 | 3.09 ± 0.52 |  |  |
| QGDPAFPEMNGNGAVAPMDFTTAA [NOL4L] | 5.09 ± 0.2 | 4.98 ± 0.16 |  |  |
| QGKYECVATNSAGTRYSAPANLYV [PTPRD] | 2.9 ± 0.22 | 2.89 ± 0.64 |  |  |
| QGMEGIKVFLHERELWLKFHEVGT [TBX5] | 2.2 ± 0.14 | 2.17 ± 0.23 |  |  |
| QGQAAAPASGSGADSEPARHIFSF [TRIM55] | 3.76 ± 0.27 | 3.79 ± 0.3 |  |  |
| QHEEICLGLFTLILTEPAQAQKCY [INTS3] | 2.24 ± 0.46 | 2.32 ± 0.41 |  |  |
| QKVDQFDPFTVPTISFICRELDAI [PRIM1] | 2.2 ± 0.24 | 2.31 ± 0.33 |  |  |
| QLEKPPEKEEDHAPEFIKVRENLR [FAM107A] | 5.29 ± 0.23 | 5.32 ± 0.16 |  |  |
| QLENEQSQENSINPIQKEEDEGVD [SPANXN3] | 5.56 ± 0.22 | 5.67 ± 0.2 |  |  |
| QLHAKIDAAEEEKYDMEVRVQKTS [TNNI2] | 5.27 ± 0.23 | 5.22 ± 0.24 |  |  |
| QLHPPRWYSRLQACQWGGNFLAFS | 2.11 ± 0.45 | 2.26 ± 0.088 |  |  |
| QLRCEMEQQNQEYKILLDVKTRLE [KRT17] | 3.63 ± 0.28 | 3.83 ± 0.098 |  |  |
| QPRLSYAEMAEDYPRYPDIHDLDL [CLCN6] | 4.14 ± 0.27 | 4.24 ± 0.14 |  |  |
| QQFVIAGVLVEDSNNHHLMLEASE [ZBED1] | 3.5 ± 0.36 | 3.57 ± 0.43 |  |  |
| QQKQQIMAALNSQTAVQFQQYAAQ [ACBD3] | 3.21 ± 0.17 | 3.27 ± 0.16 |  |  |
| QQLVSFSESGSLGNSSGSDVTSLS [ISL2] | 4.79 ± 0.19 | 4.72 ± 0.37 |  |  |
| QQSQGWVHYMIHEPEPHILLFRRP [CKS1B] | 2.11 ± 0.35 | 1.96 ± 0.22 |  |  |
| QQTKLEAEKLKVQALKDRGLSIPR [LSM1] | 4.12 ± 0.16 | 4.21 ± 0.075 |  |  |
| QRDSKRWSRLEEFDVFSPKQDLVP [DLC1] | 3.63 ± 0.13 | 3.8 ± 0.21 |  |  |
| QRISCFQSTVKCLTVLQRLDVWLS [WDR41] | 2.45 ± 0.35 | 2.41 ± 0.44 |  |  |
| QRSVSDVASGSTPAPALCCAPYDS [IRX6] | 4.8 ± 0.34 | 4.94 ± 0.085 |  |  |
| QSKPLLSAFADIIHSLKESGQLWL [FADS1] | 2.8 ± 0.4 | 2.87 ± 0.68 |  |  |
| QTFLDERTPRLMPDKESMYYPRVQ [GDAP1] | 3.43 ± 0.32 | 3.41 ± 0.31 |  |  |

| Sequence | protein stability index [1] | protein stability index [2] | protein stability index (treatment: DMSO, c terminus: native) | protein stability index (treatment: MLN4924 1 uM, 8 h, c terminus: native) |
| --- | --- | --- | --- | --- |
| QTLRQELSLPYLPSGTPELEVPKP [CHIT1] | 4.7 ± 0.15 | 4.69 ± 0.36 |  |  |
| QVERMREVNSRCYQPEPFACGIEH [FBXO34] | 2.53 ± 0.3 | 2.43 ± 0.34 |  |  |
| QVPYPPRQLLRDFQSRLPYQYLHY [P3H4] | 2.45 ± 0.072 | 2.24 ± 0.35 |  |  |
| QYESIAAKNLQEAEEWYKSKYADL [PRPH] | 4.76 ± 0.23 | 4.49 ± 0.21 |  |  |
| QYYRTIEELQNKILTATVDNANIL [KRT17] | 2.22 ± 0.2 | 2.23 ± 0.2 |  |  |
| RADKNDDGKLSFEEFKAYFADGVL [NECAB1] | 3.48 ± 0.3 | 3.58 ± 0.39 |  |  |
| RAINLLFDIARIERCNQLLRALKL [ZER1] | 1.82 ± 0.16 | 2.08 ± 0.32 |  |  |
| RAKGLLGTTVTFDDLMGILCKSVL [FEM1C] | 2.76 ± 0.63 | 2.54 ± 0.22 |  |  |
| RALARNLIFGLITCLTGVLGVGLG [SPNS1] | 2.28 ± 0.32 | 2.92 ± 0.81 |  |  |
| RALESELQQLRARLQGLEADCVRG [PBXIP1] | 3.47 ± 0.19 | 3.31 ± 0.13 |  |  |
| RASQREYEELRNSERAEVQRLEEQ [RSPH3] | 5.43 ± 0.27 | 5.3 ± 0.2 |  |  |
| RCNTTCGRGVKKRLVLCMELANGK [ADAMTSL2] | 3.22 ± 0.21 | 3 ± 0.13 |  |  |
| RDASDPLAGAALEPAGGGRSREAR [SMAD6] | 5.39 ± 0.19 | 5.44 ± 0.2 |  |  |
| RDLKTQNILLDKHRMVVKIGDFGI [NEK8] | 2.24 ± 0.18 | 2.24 ± 0.16 |  |  |
| REESQHEIKDVLVWTNDQVVHWVQ [PPFIA4] | 3.4 ± 0.37 | 3.97 ± 0.45 |  |  |
| RERKKNWGGQEDREPAGRWKEGRP [PBXIP1] | 4.49 ± 0.24 | 4.73 ± 0.13 |  |  |
| RGEVLPEEITEESLEESVGKPLYL [INTS3] | 5.17 ± 0.38 | 5.08 ± 0.35 |  |  |
| RGLEPGKGRHHRGRGGEPRAYFMS [CHGB] | 4.36 ± 0.092 | 4.24 ± 0.13 |  |  |
| RGPPPRSGGPPPKRSAPSGPVRSS [RBMX] | 4.4 ± 0.2 | 4.56 ± 0.086 |  |  |
| RGSRGAPPPLGPVVPVLVFPPDLV [MOSPD3] | 2.67 ± 0.05 | 2.96 ± 0.22 |  |  |
| RKFSRECEDQKQIKKPESFSKQIV [NEUROD6] | 4.43 ± 0.27 | 4.21 ± 0.43 |  |  |
| RKLRKTVNGDGSRENGNNSSDKVR [PHTF1] | 4.96 ± 0.088 | 4.99 ± 0.18 |  |  |
| RLFQQSCPTGLVFSNSCKCCTWN [CHIT1] |  |  | 2.37 ± 0.44 | 2.37 ± 0.28 |

| Sequence | protein stability index [1] | protein stability index [2] | protein stability index (treatment: DMSO, c terminus: native) | protein stability index (treatment: MLN4924 1 uM, 8 h, c terminus: native) |
| --- | --- | --- | --- | --- |
| RLHLAFKRQVPREQAQAYAERLGV [RAB40A] | 2.76 ± 0.16 | 3.12 ± 0.18 |  |  |
| RLHLRRTTEQHVPEVEVQVKRRRT [SNURF] | 4.75 ± 0.26 | 4.71 ± 0.35 |  |  |
| RLQSSFWIVDKQHVYIGSAGLDWQ [PLD5] | 2.69 ± 0.46 | 2.26 ± 0.38 |  |  |
| RLRHYLGSRYDARRGVSDWDLRMK [DNAAF3] | 2.19 ± 0.21 | 2.33 ± 0.33 |  |  |
| RNLDGTLGYLLDKETLRLHPDIFL [ZER1] | 2.13 ± 0.27 | 2.05 ± 0.17 |  |  |
| RPQPWLEKEIEEATKKLGFKHPVI [FUT8] | 3.643 ± 0.035 | 3.22 ± 0.37 |  |  |
| RQFEFYLEEMILPLMVASAQSGER [BTBD10] | 2.58 ± 0.64 | 3.2 ± 0.43 |  |  |
| RQQGNPGHRSIYLALKLPDGSYAL [ADAMTS4] | 2.04 ± 0.23 | 2.2 ± 0.33 |  |  |
| RQQVTNHGRGTEVLLEEPLPLETA [ZNF263] | 5 ± 0.28 | 5.04 ± 0.17 |  |  |
| RRPRTAFTQNQIEVLENVFRVNCY [HESX1] | 2.39 ± 0.15 | 2.53 ± 0.24 |  |  |
| RRQQAKLKELQAIAERLGCTLPQL [KCNAB2] | 2.99 ± 0.17 | 3.19 ± 0.3 |  |  |
| RSANGFPYREDEEGAFGEHGSQGT [MAP2] | 5.38 ± 0.25 | 5.41 ± 0.2 |  |  |
| RSVSDQFYRYKMPRLIAKVEGKGN [EIF5] | 3.47 ± 0.19 | 3.46 ± 0.21 |  |  |
| RVIEVLPRGATAAVLAPDSSNASS [SEPHS2] | 4.31 ± 0.19 | 4.42 ± 0.18 |  |  |
| RVLHDFGLDGYRGYSLADWVCLAY [SPACA3] | 2.2 ± 0.34 | 2.21 ± 0.18 |  |  |
| RVTVSRASSSRSVRTTRGKRKRVD [LMNB1] | 4.46 ± 0.2 | 4.34 ± 0.1 |  |  |
| RWDLSPEQIKTRTEELIVQTKQVY [NLN] | 3.44 ± 0.32 | 3.8 ± 0.088 |  |  |
| RWLPEKRANPCLSSSNEHAAPAAK [ELOA2] | 4.25 ± 0.18 | 4.08 ± 0.16 |  |  |
| SAESMVEYGTCMCLVKGIFYHCSN [SPRY1] | 2.65 ± 0.42 | 2.55 ± 0.34 |  |  |
| SAFSSRGSLSLSFEREPSTSDLGT [RIPK4] | 4.01 ± 0.14 | 4.13 ± 0.14 |  |  |
| SAPQQNGQPLRPLVPDASKQRLME [PDLIM7] | 4.73 ± 0.34 | 4.89 ± 0.33 |  |  |
| SATCTTGVMSAYAMCVRYDGVEVD [ADAMTSL2] | 2.72 ± 0.32 | 2.63 ± 0.17 |  |  |
| SCAGGRLFQQSCPTGLVFSNSCKC [CHIT1] | 2.98 ± 0.17 | 3.05 ± 0.24 |  |  |

| Sequence | protein stability index [1] | protein stability index [2] | protein stability index (treatment: DMSO, c terminus: native) | protein stability index (treatment: MLN4924 1 uM, 8 h, c terminus: native) |
| --- | --- | --- | --- | --- |
| SCGGDGGIVVWNMDVERQETPEWL [WDFY2] | 3.82 ± 0.34 | 3.79 ± 0.18 |  |  |
| SDINSIRRILDELTLCKSDLESQV [KRT34] | 3.34 ± 0.2 | 3.1 ± 0.37 |  |  |
| SDLEDMEEEEGTRSPTLEPPRGRS [SMG5] | 5.37 ± 0.16 | 5.39 ± 0.2 |  |  |
| SDSGSDKSLEGGGTAFDAETDSEM [SMG5] | 5.54 ± 0.15 | 5.62 ± 0.19 |  |  |
| SEADASHCIQQILESVNHCHLNGI [CAMK2D] | 2.98 ± 0.27 | 2.89 ± 0.33 |  |  |
| SEAKLYGRCELARVLHDFGLDGYR [SPACA3] | 2.23 ± 0.15 | 2.42 ± 0.13 |  |  |
| SEELLSLKYENDYPSVILRDPLQT [ETS1] | 4.05 ± 0.14 | 4.14 ± 0.13 |  |  |
| SEGACEKEKQSRDFQGRILSVDPE [RHOBTB1] | 5.22 ± 0.42 | 5.12 ± 0.35 |  |  |
| SEPIRRAGKSGTSTPTTPGSTAIT [MAP2] | 4.66 ± 0.25 | 4.65 ± 0.2 |  |  |
| SEQESLLQQAQAQFRMAQEEARRN [SMG5] | 5.19 ± 0.2 | 5.14 ± 0.31 |  |  |
| SFFAAQAGARKIYAVEASTMAQHA [CARM1] | 2.8 ± 0.45 | 2.78 ± 0.69 |  |  |
| SFVLSSLQLGEGVEFDVLPAFDAL [OAS1] | 2.45 ± 0.59 | 2.26 ± 0.53 |  |  |
| SHRFPEDHDPTIEDAYKIRIRIDD [RIT1] | 3.98 ± 0.19 | 4.28 ± 0.31 |  |  |
| SILRAPAYPLELQGQPDPAPRPGP [MOSPD3] | 4.53 ± 0.28 | 4.39 ± 0.43 |  |  |
| SKLRNYRKDLAKLHREVRSTPLTA [VTI1B] | 3 ± 0.25 | 3.26 ± 0.26 |  |  |
| SLARNPAPGVLTNKRKTYTESYIA [ZC2HC1A] | 3.22 ± 0.21 | 3.23 ± 0.41 |  |  |
| SLHCLLDQFDKDLPVYLKKDPAYF [DENND6A] | 2.13 ± 0.41 | 2.23 ± 0.23 |  |  |
| SLISLSNNTGKNLELKFVSSLRRQ [TENT5D] | 2.34 ± 0.081 | 2.58 ± 0.098 |  |  |
| SLKEELMCLKKNHEEEVSVLRCQL [KRT36] | 3.09 ± 0.31 | 3.23 ± 0.4 |  |  |
| SLNGPLSTSRHVMAPVMAHVDPEE [ADAMTS4] | 4.5 ± 0.25 | 4.49 ± 0.25 |  |  |

— the supplement of paper PMC10567573
